# Results taken from patent US20260042827A1 (published 2026).
# T1: HLA-DP4 (human, UniProt P20036 29-222; P04440 30-225)
# T1 chain 1: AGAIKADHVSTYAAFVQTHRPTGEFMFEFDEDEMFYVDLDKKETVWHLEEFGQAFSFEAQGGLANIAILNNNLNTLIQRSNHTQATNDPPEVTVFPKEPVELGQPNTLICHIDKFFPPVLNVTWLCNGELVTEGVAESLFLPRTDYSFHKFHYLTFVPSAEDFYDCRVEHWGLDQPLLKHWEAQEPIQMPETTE
# T1 chain 2: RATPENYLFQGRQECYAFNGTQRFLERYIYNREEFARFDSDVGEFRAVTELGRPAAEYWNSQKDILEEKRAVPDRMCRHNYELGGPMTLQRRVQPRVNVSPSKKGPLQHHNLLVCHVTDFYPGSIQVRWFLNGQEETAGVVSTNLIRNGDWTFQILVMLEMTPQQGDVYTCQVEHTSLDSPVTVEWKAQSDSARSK
# T2: HLA-DP2 (human, UniProt P20036 29-222; P04440 30-225)
# T2 chain 1: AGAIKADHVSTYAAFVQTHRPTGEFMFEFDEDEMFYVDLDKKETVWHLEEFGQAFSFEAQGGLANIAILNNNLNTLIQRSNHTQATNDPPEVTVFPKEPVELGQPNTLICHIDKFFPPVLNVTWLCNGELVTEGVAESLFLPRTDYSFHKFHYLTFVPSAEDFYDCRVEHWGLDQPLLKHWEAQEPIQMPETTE
# T2 chain 2: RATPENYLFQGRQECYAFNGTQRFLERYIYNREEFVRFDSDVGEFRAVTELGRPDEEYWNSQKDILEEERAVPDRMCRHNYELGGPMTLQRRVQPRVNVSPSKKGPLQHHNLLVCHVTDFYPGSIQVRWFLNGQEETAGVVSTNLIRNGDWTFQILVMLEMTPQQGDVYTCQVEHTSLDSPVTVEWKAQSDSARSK
# Experiments:
# [1] = target: T1, HLA-DP4; experiment: competition
# [2] = target: T2, HLA-DP2; experiment: competition
binder,measurement,setting,value
PGCNKRYFKLSHLQMHSRKHT [WT1328-348],IC50,[1],23.8 µM
same,IC50,[2],8 µM
